# T1: ectodomain of human Nectin-4 (residues 1-333) (human, UniProt Q96NY8 32-333)
# T1 construct: also called hNectin-4; PVRL4
# T1 sequence (looked up): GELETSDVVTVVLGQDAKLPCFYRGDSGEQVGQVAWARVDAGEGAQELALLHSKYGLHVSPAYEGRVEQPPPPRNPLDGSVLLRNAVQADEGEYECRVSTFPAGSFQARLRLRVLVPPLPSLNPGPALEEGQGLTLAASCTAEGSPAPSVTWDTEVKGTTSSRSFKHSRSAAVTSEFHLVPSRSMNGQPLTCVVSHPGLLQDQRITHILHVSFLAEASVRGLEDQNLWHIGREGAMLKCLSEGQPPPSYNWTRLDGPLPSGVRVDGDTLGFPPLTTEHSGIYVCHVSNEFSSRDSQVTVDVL
# B1: MeV-H (measles virus hemagglutinin), wild-type strain (domain or fragment)
# chain: DYDQYCADVAAEELMNALVNSTLLEARATNQFLAVSKGNCSGPTTIRGQFSNMSLSLLDLYLSRGYNVSSIVTMTSQGMYGGTYLVGKPNLSSKGSELSQLSMHRVFEVGVIRNPGLGAPVFHMTNYFEQPVSNDFSNCMVALGELKFAALCHREDSITIPYQGSGKGVSFQLVKLGVWKSPTDMRSWVPLSTDDPVIDRLYLSSHRGVIADNQAKWAVPTTRTDDKLRMETCFQQACKGKNQALCENPEWAPLKDNRIPSYGVLSVNLSLTVELKIKIASGFGPLITHGSGMDLYKTNHNNVYWLTIPPMKNLALGVINTLEWIPRFKVSPNLFTVPIKEAGEDCHAPTYLPAEVDGDVKLSSNLVILPGQDLQYVLATYDTSRVEHAVVYYVYSPSRSFSYFYPFRLPIKGVPIELQVECFTWDKKLWCRHFCVLADSESGGHITHSGMVGMGVSCTVTREDGTNRR
# How the values were obtained:
# [1] = target: T1, ectodomain of human Nectin-4 (residues …); assay: SPR; […]; HBS-EP (10 mM HEPES pH 7.4, 150 mM NaCl, 3 mM EDTA, 0.005% Surfactant P20); […]; settings: both partners purified
# [2] = target: T2, ectodomain of dog Nectin-4 (residues 1-332) (dog); assay: as above; settings: both partners purified
# T2 construct: also called dNectin-4; PVRL4
binder,measurement,setting,value
B1,Ka,[1],1.48e+06 M⁻¹
same,Kd,[1],674 nM
same,Ka,[2],739000 M⁻¹
same,Kd,[2],1350 nM
